How the values were obtained:
[1] = molecular target: SARS-CoV-2 full length spike protein (wild type) (SARS-CoV-2, UniProt P0DTC2 14-1208)
[2] = molecular target: full-length trimeric SARS-CoV spike protein (SARS-CoV, UniProt P59594 14-1190)

Row | Binder | binding signal, bead assay (fold over isotype) [1] | median fluorescence intensity, fold over isotype control [2] [fold over isotype]
1 | antibody 264 (antibody, V domains shown) VH: QVHLVESGGGVVQPGRSLRLSCAASGFTLTSYAMHWVRQAPGKGLEWVALISYDGSVKKYAESVKGRITVSGDNSRNTLHLQINTLRADDTAVYYCVRGGVSGPNSFDLWGQGTMVTVSS VL: DVVMTQSPLSLPVTLGQPASISCRSSQSLEYSDGNTYVNWFQQRPGQSPRRLIYQVSNRASGVPDRFSGSGSGTDFTLQISRVEAEDVGIYYCMQGTHWPVTFGQGTKVEIK | 598 | 
2 | antibody 263 (antibody, V domains shown) VH: EVQLVQSGAEVKKPGATVKISCKVSGYTFTDYYMHWVQQAPGKGLEWMGLVDPEDGETIYAEKFQGRVTITADTSTDTAYMELSSLRSDDTAVYYCTTDLAFTIFGGRRGFDPWGQGTLVTVSS VL: DIQLTQSPSFLSASVGDRVTITCRASQGISSYLAWYQQKPGKAPKLLIYAASTLQSGVPSRFSGSGSGTEFTLTISSLQPEDFATYYCQQLNSYDFGQGTRLEIK |  | 1.13
3 | antibody 260 (antibody, V domains shown) VH: EVQLVESGGGLVQPGRSLRLSCAASGFTFDYYAMHWVRQAPGKGLEWVSGISWNSGTIGYADSVKGRFTISRDNAKNSLYLQMNSLRAEDTALYYCAKDSRPSGRYYYGMDVWGQGTTVTVSS VL: not shown |  | 108
4 | antibody 276 (antibody, V domains shown) VH: QVQLQESGPGLVKPSQTLSLTCTVSGDSISSGGYYWSWIRQHPGKGLEWIGYIYYSGSAYYNPSLKSRVTISLDTSKNQFSLKLSSVTAADTAVYYCARDSVAGFSIFDYWGQGTLVTVSS VL: SSELTQDPAVSVALGQTVRITCQGDSLRSYYASWYQQKPGQAPVRVIYGKNNRPSGIPDRFSGSSSGNTASLTITGAQAEDEADYYCNSWDSSGNHVVFGGGTKLTVL | 748 | 
5 | antibody 265 (antibody, V domains shown) VH: EVQLVQSGAEVKKPGATVKVSCKFSGDTFSHYYIHWVQQAPGKGLEWMGLVDPQDGESEYAQKFQGKVTITADTSIDTSYLEVTSLRFDDTAFYFCATRGMSGAFDRWGQGTLVTVSS VL: DIVMTQSPDSLAVSLGERATINCKSSQSILSTSNNKNYLAWYQQKPGQPPKLLIYWASTRESGVPDRFSGGGSGTDFTLTISSLQAEDVAVYYCQQYYRTAYTTPIYTFGQGTKLEIK [antibody 265, listing 1 of 2 here] |  | 1.09
6 | antibody 265 (antibody, V domains shown) VH: EVQLVQSGAEVKKPGATVKVSCKFSGDTFSHYYIHWVQQAPGKGLEWMGLVDPQDGESEYAQKFQGKVTITADTSIDTSYLEVTSLRFDDTAFYFCATRGMSGAFDRWGQGTLVTVSS VL: DIVMTQSPDSLAVSLGERATINCKSSQSILSTSNNKNYLAWYQQKPGQPPKLLIYWASTRESGVPDRFSGGGSGTDFTLTISSLQAEDVAVYYCQQYYRTAYTTPIYTFGQGTKLEIK [antibody 265, listing 2 of 2 here] | 1280 | 
7 | antibody 259 (antibody, V domains shown) VH: EVQLVQSGAEVKKPGATVKISCKVSGYTFTDYYMHWVQQAPGKGLEWMGLVDPEDGETIYAEKFQGRVTITADTSTDTAYMELSSLRSEDTAVYYCATDLLSWKLYCSGGSCPQMDVWGQGTTVTVSS VL: DIQMTQSPSSLSASVGDRVTITCRASQGIRNDLGWYQQKPGKAPKRLIYAASSLQSGVPSRFSGSGSGTEFTLTISSLQPEDFATYYCLQHNSYPQTFGQGTKLEIK |  | 1.03
8 | antibody 273 (antibody, V domains shown) VH: QVQLVQSGAEVKKPGASVKVSCKVSGYTLTELSMHWVRQAPGKGLEWMGGFDPEDGETIYAQKFQGRVTMTEDTSTDTAYMELSSLRSEDTAVYYCATAPGYYDSSAPQPINWFDPWGQGTLVTVSS VL: QSALTQPASVSGSPGQSITISCTGTSSDVGSYNLVSWYQQHPGKAPKLMIYEVSKRPSGVSNRFSGSKSGNTASLTISGLQAEDEADYYCCSYAGSSTLVFGGGTKLTVL | 924 | 
9 | antibody 281 (antibody, V domains shown) VH: not shown VL: QSALTQPASVSGSPGQSITISCTGTSSDVGSYNLVSWYQQHPGKAPKLMIYEVSKRPSGVSNRFSGSKSGNTASLTISGLQAEDEADYYCCSYAGSSTHVVFGGGTKLTVL | 570 | 
